# From IntAct's records for PubMed 37100772
# B1: Nucleoprotein (Human coronavirus 229E), P15130 (parent)
# chain: MATVKWADASEPQRGRQGRIPYSLYSPLLVDSEQPWKVIPRNLVPINKKDKNKLIGYWNVQKRFRTRKGKRVDLSPKLHFYYLGTGPHKDAKFRERVEGVVWVAVDGAKTEPTGYGVRRKNSEPEIPHFNQKLPNGVTVVEEPDSRAPSRSQSRSQSRGRGESKPQSRNPSSDRNHNSQDDIMKAVAAALKSLGFDKPQEKDKKSAKTGTPKPSRNQSPASSQTSAKSLARSQSSETKEQKHEMQKPRWKRQPNDDVTSNVTQCFGPRDLDHNFGSAGVVANGVKAKGYPQFAELVPSTAAMLFDSHIVSKESGNTVVLTFTTRVTVPKDHPHLGKFLEELNAFTREMQQHPLLNPSALEFNPSQTSPATAEPVRDEVSIETDIIDEVN
# Variants of: B1
# Conditions: with pabp1_human PABPC1, P11940
# pabp1_human PABPC1, P11940, sequence (P11940 whole entry): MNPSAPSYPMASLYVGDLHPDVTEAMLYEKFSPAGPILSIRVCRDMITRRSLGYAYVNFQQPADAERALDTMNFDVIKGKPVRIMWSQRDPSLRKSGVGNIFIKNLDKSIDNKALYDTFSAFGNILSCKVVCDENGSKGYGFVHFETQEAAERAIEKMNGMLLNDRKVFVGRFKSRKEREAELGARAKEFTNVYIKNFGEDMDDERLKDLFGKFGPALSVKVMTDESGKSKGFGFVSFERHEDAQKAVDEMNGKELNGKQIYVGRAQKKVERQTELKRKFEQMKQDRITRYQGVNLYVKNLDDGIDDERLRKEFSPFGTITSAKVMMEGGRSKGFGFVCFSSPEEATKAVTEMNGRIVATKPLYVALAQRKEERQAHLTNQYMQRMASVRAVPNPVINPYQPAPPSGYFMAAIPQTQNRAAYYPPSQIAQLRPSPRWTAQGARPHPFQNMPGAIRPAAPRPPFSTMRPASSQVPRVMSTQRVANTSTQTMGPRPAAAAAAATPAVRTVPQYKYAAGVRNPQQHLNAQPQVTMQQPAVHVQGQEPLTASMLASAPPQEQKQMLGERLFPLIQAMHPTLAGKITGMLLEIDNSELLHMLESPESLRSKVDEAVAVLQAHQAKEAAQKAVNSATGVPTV
row,Variant,effect of a mutation on the interaction
1,L354A;N355G;P356G;A358G;F361A;N362A;P363G,disrupting interaction strength
